Molecular target: T1, 天然のヒトCD4(細胞表面) (human, UniProt P01730 26-458)
T1 construct: whole, on cells; also called nCD4; CD4 on SupT1 cells
Test: flow cytometry on SupT1 cells, serial dilutions, half-maximal fluorescence

B1: 4D1 (antibody, V domains shown)
VH: EVQLVQSGAEVKKPGESLKISCKGSGYSFTGYWIGWVRQMPGKGLEWMGIIYPGDSDTTYSPSFQGQVTISADKSISTAYLQWSSLKASDTAMYYCARDQLGLFDYWGQGTLVTVSS
VL: DIQMTQSPSSLSASVGDRVTITCRASQGISSWLAWYQQKPEKAPKSLIYSASSLQSGVPSRFSGSGSGTDFTLTISSLQPEDFATYYCQQYDSYPYTFGQGTKLEIK
Ka: > 1e+09 M⁻¹

From JP2009045066A (dated 2009)
